Experimental data as given in the FLAb antibody collection (doi:10.7554/elife.23156).

B1: scFv; the commonest letter at each place (parent)
chain 1: EVKLDETGGGLVQPGRPMKLSCVASGFTFSDYWMNWVRQSPEKGLEWVAQIRNKPYNYETYYSDSVKGRFTISRDDSKSSVYLQMNNLRVEDMGIYYCTGSYYGMDYWGQGTSVTVS
chain 2: DVVMTQTPLSLPVSLGDQASISCRSSQSLVHSNGNTYLRWYLQKPGQSPKVLIYKVSNRFSGVPDRFSGSGSGTDFTLKISRVEAEDLGVYFCSQSTHVPWTFGGGTKLEIK

Key:
[1] = variants of: B1; assay: Kd (Tite-Seq); conditions: with fluorescein; format: scFv 4-4-20, heavy + light
[2] = variants of: B1; assay: yeast surface expression (ratio to wild type); higher = more expressed; conditions: format: scFv 4-4-20, heavy + light

Kd [1] [µM] | Variant | yeast surface expression [2]
0.00184 | chain 1 T28Y D31Y | 0.779
0.021 | chain 1 D31A M34L V37G | 0.0111
≥ 10 | chain 1 S101H W108Y | 0.408
≥ 10 | chain 1 M34Y W36K | 0.113
≥ 10 | chain 1 G104N Y107A | 0.74
≥ 10 | chain 1 D31E M34N | 0.61
≥ 10 | chain 1 D106P W108M | 0.714
0.0534 | chain 1 S30Y M34A | 0.483
≥ 10 | chain 1 T28M Y32W | 0.903
≥ 10 | chain 1 G104F W108F | 0.387
≥ 10 | chain 1 M105I W108G | 0.529
0.000724 | chain 1 M105I W108V | 0.782
≥ 10 | chain 1 M34P V37A | 0.897
≥ 10 | chain 1 Y32K V37S | 0.852
0.00158 | chain 1 Y102W Y107W | 0.797
1.72 | chain 1 M105L Y107V | 1.08
0.02 | chain 1 M34T V37C | 0.697
≥ 10 | chain 1 Y107K W108Q | 0.659
0.00158 | chain 1 T28A | 1.01
0.00468 | chain 1 T28F S30T | 0.857
0.00468 | chain 1 Y107C W108V | 0.304
≥ 10 | chain 1 G100R S101H | 0.282
0.00194 | chain 1 Y103G W108F | 1.06

Kd [1] [µM] | Variant | yeast surface expression [2]
≥ 10 | chain 1 G104E W108G | 0.296
≥ 10 | chain 1 Y32W | 0.805
≥ 10 | chain 1 Y32I | 0.938
≥ 10 | chain 1 D31V W33K | 0.795
≥ 10 | chain 1 M105V D106Y | 0.489
≥ 10 | chain 1 M105V D106E | 1.02
≥ 10 | chain 1 S30H N35E | 0.504
≥ 10 | chain 1 Y102I D106Q | 0.599
≥ 10 | chain 1 Y102H G104N M105S | 1.54
≥ 10 | chain 1 T28I W33K | 0.617
≥ 10 | chain 1 Y103P W108Y | 0.364
≥ 10 | chain 1 F29M W33C | 0.983
≥ 10 | chain 1 Y103I Y107F W108D | 0.437
≥ 10 | chain 1 M105T G109C | 0.27
≥ 10 | chain 1 S101G W108R | 0.436
≥ 10 | chain 1 T28A F29K | 0.821
≥ 10 | chain 1 Y103G M105S | 0.983
≤ 0.000316 | chain 1 Y102C W108I | 0.7
≥ 10 | chain 1 G104V | 0.536
0.79 | chain 1 D31R W36M V37G | 3.04
≥ 10 | chain 1 G100E Y102G | 0.488
≥ 10 | chain 1 D106Y | 0.51
≥ 10 | chain 1 S101I M105N | 0.482

Kd [1] [µM] | Variant | yeast surface expression [2]
≤ 0.000316 | chain 1 W108L | 0.827
0.031 | chain 1 W108N | 0.468
≥ 10 | chain 1 Y107P G109N | 0.355
≥ 10 | chain 1 D31C W33G | 0.385
≥ 10 | chain 1 M105Y D106A | 0.432
≥ 10 | chain 1 G100I | 0.852
0.0017 | chain 1 G100A | 0.964
≥ 10 | chain 1 G100M | 0.759
≥ 10 | chain 1 S101Y Y102N D106Y | 0.501
≥ 10 | chain 1 T28L W36A | 0.508
0.205 | chain 1 D31V V37E | 0.807
0.228 | chain 1 F29N S30K | 1.13
≥ 10 | chain 1 Y32M M34Q | 0.437
≥ 10 | chain 1 G100V G104A | 0.747
≥ 10 | chain 1 G100V G104D | 0.777
≥ 10 | chain 1 M34A W36M | 0.249
≤ 0.000316 | chain 1 S30F M34E | 0.0981
≥ 10 | chain 1 T28A D31C N35A | 0.411
≥ 10 | chain 1 Y103P M105K | 0.785
0.0507 | chain 1 M105Y G109S | 0.936
≥ 10 | chain 1 N35T | 0.879
≥ 10 | chain 1 Y32A M34S | 0.769
≥ 10 | chain 1 N35C V37M | 0.689

Kd [1] [µM] | Variant | yeast surface expression [2]
≥ 10 | chain 1 Y102C G104D | 0.919
≥ 10 | chain 1 M105S | 0.889
0.00251 | chain 1 M105W | 0.648
≥ 10 | chain 1 M105P | 0.648
≥ 10 | chain 1 D106A W108M | 0.713
≥ 10 | chain 1 F29S W33H | 0.724
≥ 10 | chain 1 F29S W33C | 0.865
0.228 | chain 1 F29L M34K W36P | 0.61
≥ 10 | chain 1 S101Q G104V | 0.296
0.712 | chain 1 M34I W36M | 0.783
0.00708 | chain 1 Y103L | 1.08
0.00708 | chain 1 Y103N | 1.17
≥ 10 | chain 1 Y32A W33I M34T | 0.444
6.96 | chain 1 F29C V37E | 0.973
≥ 10 | chain 1 F29A S30D M34K | 0.41
≥ 10 | chain 1 T28R V37P | 1.99
0.00128 | chain 1 Y102S Y107W | 0.747
≥ 10 | chain 1 W33D | 0.986
≥ 10 | chain 1 W33M | 0.887
≥ 10 | chain 1 Y102N M105C | 1.22
≥ 10 | chain 1 D31P M34V | 0.733
≥ 10 | chain 1 G109N | 0.622
3.64 | chain 1 G109D | 0.573

Kd [1] [µM] | Variant | yeast surface expression [2]
≥ 10 | chain 1 G109L | 0.217
0.0525 | chain 1 G109A | 0.719
≥ 10 | chain 1 G104L W108C | 0.296
≥ 10 | chain 1 M105F G109L | 0.369
≥ 10 | chain 1 Y102L G109K | 0.214
≥ 10 | chain 1 G100R Y107N G109K | 0.235
≥ 10 | chain 1 F29Y M34E | 0.542
≥ 10 | chain 1 G100R Y103I | 0.418
≥ 10 | chain 1 T28E S30I W33I | 0.628
≥ 10 | chain 1 S101D Y107S | 0.672
0.00575 | chain 1 T28K S30K M34Y | 0.855
≥ 10 | chain 1 S30P D31A Y32H | 0.725
≥ 10 | chain 1 S101F G104L | 0.778
≥ 10 | chain 1 Y102A Y107P | 0.707
≥ 10 | chain 1 G104D M105L | 1.07
≥ 10 | chain 1 Y103Q M105T | 0.874
≥ 10 | chain 1 T28G F29R W36P | 0.146
≥ 10 | chain 1 M105D D106C | 0.616
≥ 10 | chain 1 F29A M34V | 0.827
≥ 10 | chain 1 G104D G109V | 0.266
0.00158 | chain 1 S30A D31A V37C | 0.739
≥ 10 | chain 1 Y32H N35T | 0.813
≥ 10 | chain 1 G104I Y107N | 0.247
